The record followed here is paper PMC10397247.

Assay [1] concerns the target T1, APC9806-AA.
T1 chain: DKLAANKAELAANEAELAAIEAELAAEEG
The assay is described as follows: two-hybrid library CCmax.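 Further: natural log of median RNA to DNA barcode read ratio; higher means stronger binding.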 The note with it: mean of both orientations.

Assay [2] concerns the target T2, APC9141-AA.
T2 chain: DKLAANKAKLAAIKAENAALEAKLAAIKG
The assay is described as follows: two-hybrid library CCmax.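 Further: natural log of median RNA to DNA barcode read ratio; higher means stronger binding.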 The note with it: mean of both orientations.

Assay [3] addresses T3, APC9291-AA.
T3 chain: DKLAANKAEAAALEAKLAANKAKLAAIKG
The assay is described as follows: two-hybrid library CCmax.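 Further: natural log of median RNA to DNA barcode read ratio; higher means stronger binding.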 The conditions noted are these: mean of both orientations.

Assay [4] concerns the target T4, APC5009-AA.
T4 chain: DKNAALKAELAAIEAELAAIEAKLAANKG
The assay is described as follows: two-hybrid library CCmax.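 Further: natural log of median RNA to DNA barcode read ratio; higher means stronger binding.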 The conditions noted are these: mean of both orientations.

The target in assay [5] is T5, APC2543-AA.
T5 chain: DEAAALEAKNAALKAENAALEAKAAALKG
The assay is described as follows: two-hybrid library CCmax.

Assay [6] addresses T6, APC6088-AA.
T6 chain: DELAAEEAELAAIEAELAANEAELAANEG
The assay is described as follows: two-hybrid library CCmax. The conditions noted are these: mean of both orientations.

The target in assay [7] is T7, APC4100-AA.
T7 chain: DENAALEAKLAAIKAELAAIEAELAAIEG
The assay is described as follows: two-hybrid library CCmax. The note with it: mean of both orientations.

In assay [8] the target is T8, APC7524-AA.
T8 chain: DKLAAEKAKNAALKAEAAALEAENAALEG
The assay is described as follows: two-hybrid library CCmax. The conditions noted are these: mean of both orientations.

In assay [9] the target is T9, APC2556-AA.
T9 chain: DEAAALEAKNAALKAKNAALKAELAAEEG
The assay is described as follows: two-hybrid library CCmax. The note with it: mean of both orientations.

Assay [10] deals with T10, APC4336-AA.
T10 chain: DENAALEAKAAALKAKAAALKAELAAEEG
The assay is described as follows: two-hybrid library CCmax. The conditions noted are these: mean of both orientations.

In assay [11] the target is T11, APC8401-AA.
T11 chain: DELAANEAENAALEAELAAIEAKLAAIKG
The assay is described as follows: two-hybrid library CCmax. The note with it: mean of both orientations.

The target in assay [12] is T12, APC9182-AA.
T12 chain: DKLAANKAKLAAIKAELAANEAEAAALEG
The assay is described as follows: two-hybrid library CCmax. The conditions noted are these: mean of both orientations.

The target of assay [13] is T13, APC3354-AA.
T13 chain: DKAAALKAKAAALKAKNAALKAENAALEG
The assay is described as follows: two-hybrid library CCmax. The conditions noted are these: mean of both orientations.

Assay [14] addresses T14, APC2811-AA.
T14 chain: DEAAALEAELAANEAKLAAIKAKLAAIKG
The assay is described as follows: two-hybrid library CCmax. The conditions noted are these: mean of both orientations.

Assay [15] has as its target T15, APC2981-AA.
T15 chain: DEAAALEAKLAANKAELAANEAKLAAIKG
The assay is described as follows: two-hybrid library CCmax. The note with it: mean of both orientations.

Assay [16] deals with T16, APC3881-AA.
T16 chain: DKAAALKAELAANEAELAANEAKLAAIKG
The assay is described as follows: two-hybrid library CCmax. The conditions noted are these: mean of both orientations.

In assay [17] the target is T17, APC542-AA.
T17 chain: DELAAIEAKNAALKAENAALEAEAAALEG
The assay is described as follows: two-hybrid library CCmax. The conditions noted are these: mean of both orientations.

Assay [18] addresses T18, APC5531-AA.
T18 chain: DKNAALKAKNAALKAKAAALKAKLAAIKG
The assay is described as follows: two-hybrid library CCmax. The conditions noted are these: mean of both orientations.

The target in assay [19] is T19, APC3265-AA.
T19 chain: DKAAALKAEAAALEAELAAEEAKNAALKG
The assay is described as follows: two-hybrid library CCmax. The conditions noted are these: mean of both orientations.

The target in assay [20] is T20, APC2724-AA.
T20 chain: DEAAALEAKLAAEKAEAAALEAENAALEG
The assay is described as follows: two-hybrid library CCmax.

Assay [21] deals with T21, APC8516-AA.
T21 chain: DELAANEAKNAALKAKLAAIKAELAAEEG
The assay is described as follows: two-hybrid library CCmax. The conditions noted are these: mean of both orientations.

Assay [22] addresses T22, APC3323-AA.
T22 chain: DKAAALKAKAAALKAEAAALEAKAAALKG
The assay is described as follows: two-hybrid library CCmax. The note with it: mean of both orientations.

Assay [23] has as its target T23, O9-bP.
T23 chain: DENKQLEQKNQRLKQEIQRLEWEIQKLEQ
The assay is described as follows: two-hybrid library CCNG1.

The target of assay [24] is T24, O6-bP.
T24 chain: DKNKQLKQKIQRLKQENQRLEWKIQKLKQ
The assay is described as follows: two-hybrid library CCNG1.

Assay [25] addresses T25, O5-bP.
T25 chain: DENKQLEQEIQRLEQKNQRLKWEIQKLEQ
The assay is described as follows: two-hybrid library CCNG1.

The target in assay [26] is T26, O4-bP.
T26 chain: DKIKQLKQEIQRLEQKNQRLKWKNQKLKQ
The assay is described as follows: two-hybrid library CCNG1.

Assay [27] has as its target T27, O8-bP.
T27 chain: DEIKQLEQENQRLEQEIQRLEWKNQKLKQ
The assay is described as follows: two-hybrid library CCNG1.

The target of assay [28] is T28, O3-bP.
T28 chain: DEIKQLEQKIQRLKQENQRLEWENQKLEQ
The assay is described as follows: two-hybrid library CCNG1.

Assay [29] has as its target T29, O2-bP.
T29 chain: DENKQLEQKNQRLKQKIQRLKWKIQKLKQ
The assay is described as follows: two-hybrid library CCNG1.

Assay [30] deals with T30, O7-bP.
T30 chain: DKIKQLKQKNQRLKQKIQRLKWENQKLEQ
The assay is described as follows: two-hybrid library CCNG1.

Take DEAAALEAKNAALKAENAALEAKAAALKG [APC2543-AA]: the interaction score in assay [1] was -1.56; in assay [2] it was -1.6; in assay [3], -1.67; in [4] it was -1.04; in assay [5], -1.71; in [6], -1.87. For the same molecule, the interaction score in assay [7] was -1.65; in [8], -1.63; in assay [9] it was -1.67; in assay [10] it was -1.73; in assay [11] it was -1.23; in assay [12] it was -1.84. Further, the interaction score was -1.72 in assay [13]; -1.54 in assay [14]; -1.4 in assay [15]; -1.22 in [16]; -1.65 in assay [17]; -1.8 in [18]. The interaction score was -1.58 in assay [19], -1.16 in assay [20], -1.7 in assay [21] and -1.36 in assay [22].
For DENKQLEQKNQRLKQKIQRLKWKIQKLKQ [O2-bP], the interaction score is -1.4 in [23]; -0.766 in [24]; -0.804 in assay [25]; -0.811 in assay [26]; -1.21 in assay [27]; -0.635 in [28]. In addition, the interaction score in assay [29] was -1.2; in [30], -0.723.
